Reference: US6642368B1, “Programmed cell death and caspase-12” (The General Hospital Corporation, priority 1998, dated 2003)

Columns and labels:
pro-caspase-12 = assay: In vitro cleavage of [35S]-labeled protein by partially purified caspase-12Δ2; assay type: biochemical, mouse; conditions: 1 hr at 37° C., 0.1 μg enzyme
Text: (§1) FIGS. 8A-8C Protease activity of caspase-12Δ2. […] Proteins were run on 15% gel and detected by Coomassie brilliant blue staining. Arrowheads indicate polypeptides derived from caspase-12 proteins. FIG. 8B is a diagram of processing sites on caspase-12Δ and caspase-12Δ2. […] Reaction was stopped by boiling with the addition of sample buffer for SDS-polyacrylamide gel electrophoresis. The molecular sizes in kilodaltons are indicated at the left.
(§2) ICE, casp-2 and casp-3 were cloned into a pET-15b vector (Novagen) and their expression was induced in the presence of 0.2-0.3 mM IPTG (Wang, S., et a., J. Biol. Chem. 271:20580-20587 (1996); Cryns, V. L., et al., J. Biol. Chem. 271:31277-31282 (1996)). Bacterial lysates containing the ICE-like proteases were prepared as described (Wang, S., et al., J. Biol. Chem. 271:20580-20587 (1996); Cryns, V. L., et al., J. Biol. Chem. 271:31277-31282 (1996)). [^35S]-labeled proteins were prepared by in vitro transcription and translation using a TNT coupled reticulocyte lysate system (Promega) and [^35S]methionine (Amersham). Labeled proteins were incubated at 37° C. with purified caspase-12Δ2 or at 30° C. with E. coli lysates containing the caspase family members. […] Cleavage products were analyzed by either 10- or 15% SDS-polyacrylamide gel electrophoresis. […]

[1] = test system: pro-IL-1β and poly(ADP-ribose) polymerase; assay: Cleavage of preferred ICE and caspase-3 substrates by purified caspase-12Δ2; assay type: biochemical
Protocol: as §2, with “members. The reaction mixture contained 25 mM Hepes (pH 7.5) with 5 mM EDTA, 5 mM dithiothreitol, 10% sucrose, 10 μg/ml leupeptin and 250 μM phenylmethylsulfonyl fluoride. Amount of proteins used for cleavage reaction were: 0.1 μg for partially purified caspase-12Δ2, 25-70 μg for E. coli lysate.” for “members.”

[2] = test system: pro-ICE, pro-caspase-2 and pro-caspase-3; assay: In vitro cleavage of [35S]-labeled proteins by partially purified caspase-12Δ2; assay type: biochemical; conditions: 1 hr or 3 hr incubation
Text: as §1, §2

processing of pro-caspase-12 (48 kDa) into fragments (pro-caspase-12): can efficiently process | cleavage of pro-IL-1β and poly(ADP-ribose) polymerase [1]: little activity | cleavage of pro-ICE, pro-caspase-2 and pro-caspase-3 [2]: only faint bands of cleavage products
B1: caspase-12Δ2: truncated His-tagged caspase-12, amino acid residues 145-419 of SEQ ID NO:2 (protein)
chain: TLKLCPRDQFCKIKTERAKEIYPVMEKEGRTRLALIICNKKFDYLFDRDNADTDILNMQELLENLGYSVVLKENLTAQEMETELMQFAGRPEHQSSDSTFLVFMSHGILEGICGVKHRNKKPDVLHDDTIFKIFNNSNCRSLRNKPKILIMQACRGRYNGTIWVSTNKGIATADTDEERVLSCKWNNSITKAHVETDFIAFKSSTPHNISWKVGKTGSLFISKLIDCFKKYCWCYHLEEIFRKVQHSFEVPGELTQMPTIERVSMTRYFYLFPGN
modifications: His tag
